Measurements: paper PMC7972811 (Cell Reports, 2021)
Numbering of substitutions follows the chain as printed. Numbers in names are those of the source. Where two headings read alike, the source gives them in different places.

Key:
[1] = target: T1, SARS-CoV-2 spike S2P (ectodomain of the SARS-CoV-2 S trimer) (SARS-CoV-2, ancestral (P0DTC2 sequence), stabilised); experiment: cryo-EM structure
[2] = target: T1, SARS-CoV-2 spike S2P (ectodomain of the …); experiment: cell-based or functional assay
[3] = target: T1, SARS-CoV-2 spike S2P (ectodomain of the …); experiment: SPR
[4] = target: T1, SARS-CoV-2 spike S2P (ectodomain of the …); experiment: cryo-EM structure; remark: listed apart in the source
[5] = target: T1, SARS-CoV-2 spike S2P (ectodomain of the …); experiment: cryo-EM structure; remark: listed apart in the source

B1: H4 Fab (Fab, V domains shown)
VH: not shown
VL: DIQMTQSPLSLPVTPGEPASISCRSSQSLLDSDDGNTYLDWYLQKPGQSPQLLIYTLSYRASGVPDRFSGSGSGTDFTLKISRVEAEDVGVYYCMQRIEFPLTFGGGTKVEIK
stoichiometry N [1]: 1 Fab per spike trimer

B2: 2-4 IgG with the somatic hypermutation A60T (heavy chain) reverted to germline (antibody, V domains shown)
VH: not shown
VL: QSALTQPPSASGSPGQSVTISCTGTSSDVGGYNYVSWYQQHPGKAPKLMIYEVSKRPSGVPDRFSGSKSGNTASLTVSGLQAEDEADYYCSSYAGSNNLVFGGGTKLTVL
pseudovirus neutralization, fold reduction against 2-4 IgG [2]: ~9 fold
fold reduction of binding affinity against 2-4 IgG [3]: ~6 fold

B3: 2-43 IgG with the paratope somatic hypermutation S76T (heavy chain) reverted to germline (antibody, V domains shown)
VH: not shown
VL: QSALTQPASVSGSPGQSITISCTGTSSDVGGYNYVSWYQQHPGKAPKLMIYDVSKRPSGVSNRFSGSKSGNTASLTISGLQAEDEGDYYCSSYTSSSTWVFGGGTKLTVL
pseudovirus neutralization potency, fold reduction against 2-43 IgG [2]: ~5 fold
fold reduction of IgG-apparent binding affinity against 2-43 IgG [3]: ~6 fold

B4: 2-15 Fab (Fab, V domains shown)
VH: QVQLVQSGAEVKKPGASVRVSCKASGYTFTGYYMHWVRQAPGQGLEWMGWINPISDGTNYAQKFQGWVTMTRDTSISTVYMELSRLRSDDTAVYYCARGGSRCSGGNCYGWAYDAFDIWGQGTMITVSS
VL: B3 VL with Y34F, G86A, Y88C, W99F, G103T, L107V
neutralization potency of the Fab, fold less than its IgG form [2]: ~95 fold
stoichiometry N [4]: 1 Fab per spike trimer

B5: 2-43 Fab (Fab, V domains shown)
VH: not shown
VL: B3 VL
neutralization potency of the Fab, fold less than its IgG form [2]: ~140 fold
stoichiometry N [5]: 3 Fab per spike trimer

B6: 2-15 IgG with the paratope somatic hypermutation N53I (heavy chain) reverted to germline (antibody, V domains shown)
VH: B4 VH with I54N
VL: B3 VL with Y34F, G86A, Y88C, W99F, G103T, L107V
pseudovirus neutralization potency, fold reduction against 2-15 IgG [2]: 217 fold
fold reduction of binding affinity against 2-15 IgG [3]: 56 fold
